In IntAct's records for PubMed 25910212:

B1: B-cell lymphoma/leukemia 10 (Homo sapiens), O95999 (parent)
chain: MEPTAPSLTEEDLTEVKKDALENLRVYLCEKIIAERHFDHLRAKKILSREDTEEISCRTSSRKRAGKLLDYLQENPKGLDTLVESIRREKTQNFLIQKITDEVLKLRNIKLEHLKGLKCSSCEPFPDGATNNLSRSNSDESNFSEKLRASTVMYHPEGESSTTPFFSTNSSLNLPVLEVGRTENTIFSSTTLPRPGDPGAPPLPPDLQLEEEGTCANSSEMFLPLRSRTVSRQ
partner: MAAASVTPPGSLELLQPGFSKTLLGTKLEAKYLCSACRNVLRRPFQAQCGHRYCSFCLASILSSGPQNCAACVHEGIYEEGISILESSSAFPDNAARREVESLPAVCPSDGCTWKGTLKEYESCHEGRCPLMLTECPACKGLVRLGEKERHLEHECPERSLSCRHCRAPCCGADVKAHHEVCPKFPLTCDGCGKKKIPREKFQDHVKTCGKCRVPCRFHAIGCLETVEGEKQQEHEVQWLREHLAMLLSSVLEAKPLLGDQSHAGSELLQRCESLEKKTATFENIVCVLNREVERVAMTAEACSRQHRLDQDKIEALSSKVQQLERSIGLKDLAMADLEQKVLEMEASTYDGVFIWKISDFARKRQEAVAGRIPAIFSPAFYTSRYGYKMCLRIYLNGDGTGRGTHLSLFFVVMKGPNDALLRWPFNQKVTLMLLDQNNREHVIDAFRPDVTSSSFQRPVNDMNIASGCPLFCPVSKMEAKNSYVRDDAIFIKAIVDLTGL
B2: Complement factor H-related protein 5 (Homo sapiens), Q9BXR6 (parent)
chain: MLLLFSVILISWVSTVGGEGTLCDFPKIHHGFLYDEEDYNPFSQVPTGEVFYYSCEYNFVSPSKSFWTRITCTEEGWSPTPKCLRMCSFPFVKNGHSESSGLIHLEGDTVQIICNTGYSLQNNEKNISCVERGWSTPPICSFTKGECHVPILEANVDAQPKKESYKVGDVLKFSCRKNLIRVGSDSVQCYQFGWSPNFPTCKGQVRSCGPPPQLSNGEVKEIRKEEYGHNEVVEYDCNPNFIINGPKKIQCVDGEWTTLPTCVEQVKTCGYIPELEYGYVQPSVPPYQHGVSVEVNCRNEYAMIGNNMITCINGIWTELPMCVATHQLKRCKIAGVNIKTLLKLSGKEFNHNSRIRYRCSDIFRYRHSVCINGKWNPEVDCTEKREQFCPPPPQIPNAQNMTTTVNYQDGEKVAVLCKENYLLPEAKEIVCKDGRWQSLPRCVESTAYCGPPPSINNGDTTSFPLSVYPPGSTVTYRCQSFYKLQGSVTVTCRNKQWSEPPRCLDPCVVSEENMNKNNIQLKWRNDGKLYAKTGDAVEFQCKFPHKAMISSPPFRAICQEGKFEYPICE
partner: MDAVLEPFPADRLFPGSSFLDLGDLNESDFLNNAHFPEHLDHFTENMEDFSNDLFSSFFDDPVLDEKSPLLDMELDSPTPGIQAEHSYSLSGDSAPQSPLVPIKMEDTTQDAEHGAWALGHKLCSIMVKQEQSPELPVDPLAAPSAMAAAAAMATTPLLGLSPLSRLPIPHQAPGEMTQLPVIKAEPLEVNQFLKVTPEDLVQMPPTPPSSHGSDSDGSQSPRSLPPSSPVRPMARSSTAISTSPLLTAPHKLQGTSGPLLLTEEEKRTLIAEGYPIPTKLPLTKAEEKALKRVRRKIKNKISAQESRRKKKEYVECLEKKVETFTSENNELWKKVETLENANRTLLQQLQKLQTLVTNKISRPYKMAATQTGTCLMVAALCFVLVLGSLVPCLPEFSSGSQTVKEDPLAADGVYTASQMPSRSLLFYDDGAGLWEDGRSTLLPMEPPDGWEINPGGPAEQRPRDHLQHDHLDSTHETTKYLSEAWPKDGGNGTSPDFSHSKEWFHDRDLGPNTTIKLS
B3: Glial cell line-derived neurotrophic factor (Homo sapiens), P39905 (parent)
chain: MKLWDVVAVCLVLLHTASAFPLPAGKRPPEAPAEDRSLGRRRAPFALSSDSNMPEDYPDQFDDVMDFIQATIKRLKRSPDKQMAVLPRRERNRQAAAANPENSRGKGRRGQRGKNRGCVLTAIHLNVTDLGLGYETKEELIFRYCSGSCDAAETTYDKILKNLSRNRRLVSDKVGQACCRPIAFDDDLSFLDDNLVYHILRKHSAKRCGCI
B4: U4/U6 small nuclear ribonucleoprotein Prp31 (Homo sapiens), Q8WWY3 (parent)
chain: MSLADELLADLEEAAEEEEGGSYGEEEEEPAIEDVQEETQLDLSGDSVKTIAKLWDSKMFAEIMMKIEEYISKQAKASEVMGPVEAAPEYRVIVDANNLTVEIENELNIIHKFIRDKYSKRFPELESLVPNALDYIRTVKELGNSLDKCKNNENLQQILTNATIMVVSVTASTTQGQQLSEEELERLEEACDMALELNASKHRIYEYVESRMSFIAPNLSIIIGASTAAKIMGVAGGLTNLSKMPACNIMLLGAQRKTLSGFSSTSVLPHTGYIYHSDIVQSLPPDLRRKAARLVAAKCTLAARVDSFHESTEGKVGYELKDEIERKFDKWQEPPPVKQVKPLPAPLDGQRKKRGGRRYRKMKERLGLTEIRKQANRMSFGEIEEDAYQEDLGFSLGHLGKSGSGRVRQTQVNEATKARISKTLQRTLQKQSVVYGGKSTIRDRSSGTASSVAFTPLQGLEIVNPQAAEKKVAEANQKYFSSMAEFLKVKGEKSGLMST
partner: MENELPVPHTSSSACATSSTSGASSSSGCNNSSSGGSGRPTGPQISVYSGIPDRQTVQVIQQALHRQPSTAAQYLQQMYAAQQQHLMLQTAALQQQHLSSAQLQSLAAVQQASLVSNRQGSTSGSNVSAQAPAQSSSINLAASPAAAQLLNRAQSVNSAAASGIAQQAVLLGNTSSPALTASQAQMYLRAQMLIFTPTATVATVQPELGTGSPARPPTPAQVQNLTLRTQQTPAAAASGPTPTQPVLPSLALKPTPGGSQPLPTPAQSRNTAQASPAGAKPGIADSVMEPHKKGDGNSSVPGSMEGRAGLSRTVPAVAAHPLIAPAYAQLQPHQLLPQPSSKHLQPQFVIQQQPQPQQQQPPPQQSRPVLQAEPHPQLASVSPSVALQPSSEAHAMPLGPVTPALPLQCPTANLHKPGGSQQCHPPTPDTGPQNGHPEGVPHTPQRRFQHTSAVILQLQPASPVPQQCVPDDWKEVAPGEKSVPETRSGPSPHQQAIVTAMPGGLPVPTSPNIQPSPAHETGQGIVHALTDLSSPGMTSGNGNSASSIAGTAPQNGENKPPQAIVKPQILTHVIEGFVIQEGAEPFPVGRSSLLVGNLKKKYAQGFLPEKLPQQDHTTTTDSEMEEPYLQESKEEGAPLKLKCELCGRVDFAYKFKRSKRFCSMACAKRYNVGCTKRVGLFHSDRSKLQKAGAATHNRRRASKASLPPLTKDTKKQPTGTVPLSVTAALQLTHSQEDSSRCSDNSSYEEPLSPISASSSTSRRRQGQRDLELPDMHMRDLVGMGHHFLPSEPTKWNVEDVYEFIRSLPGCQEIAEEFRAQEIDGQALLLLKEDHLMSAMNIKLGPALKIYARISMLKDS
B5: ATP synthase mitochondrial F1 complex assembly factor 2 (Homo sapiens), Q8N5M1 (parent)
chain: MWRSCLRLRDGGRRLLNRPAGGPSASMSPGPTIPSPARAYAPPTERKRFYQNVSITQGEGGFEINLDHRKLKTPQAKLFTVPSEALAIAVATEWDSQQDTIKYYTMHLTTLCNTSLDNPTQRNKDQLIRAAVKFLDTDTICYRVEEPETLVELQRNEWDPIIEWAEKRYGVEISSSTSIMGPSIPAKTREVLVSHLASYNTWALQGIEFVAAQLKSMVLTLGLIDLRLTVEQAVLLSRLEEEYQIQKWGNIEWAHDYELQELRARTAAGTLFIHLCSESTTVKHKLLKE
partner: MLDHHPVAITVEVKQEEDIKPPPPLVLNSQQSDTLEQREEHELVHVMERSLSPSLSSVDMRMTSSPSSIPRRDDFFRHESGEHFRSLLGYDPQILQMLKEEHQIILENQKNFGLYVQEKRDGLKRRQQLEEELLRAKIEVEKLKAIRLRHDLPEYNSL
B6: Emerin (Homo sapiens), P50402 (parent)
chain: MDNYADLSDTELTTLLRRYNIPHGPVVGSTRRLYEKKIFEYETQRRRLSPPSSSAASSYSFSDLNSTRGDADMYDLPKKEDALLYQSKGYNDDYYEESYFTTRTYGEPESAGPSRAVRQSVTSFPDADAFHHQVHDDDLLSSSEEECKDRERPMYGRDSAYQSITHYRPVSASRSSLDLSYYPTSSSTSFMSSSSSSSSWLTRRAIRPENRAPGAGLGQDRQVPLWGQLLLFLVFVIVLFFIYHFMQAEEGNPF
partner: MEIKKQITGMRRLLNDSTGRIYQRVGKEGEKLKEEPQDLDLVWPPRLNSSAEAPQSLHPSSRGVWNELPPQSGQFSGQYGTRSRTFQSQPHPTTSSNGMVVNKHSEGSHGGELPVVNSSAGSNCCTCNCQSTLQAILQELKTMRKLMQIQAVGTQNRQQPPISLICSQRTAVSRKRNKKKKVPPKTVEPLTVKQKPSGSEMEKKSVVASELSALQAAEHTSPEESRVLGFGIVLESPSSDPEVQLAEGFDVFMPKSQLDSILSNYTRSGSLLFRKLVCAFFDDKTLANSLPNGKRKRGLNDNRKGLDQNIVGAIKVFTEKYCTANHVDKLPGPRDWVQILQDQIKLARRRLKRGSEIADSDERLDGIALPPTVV
B7: Peripheral myelin protein 22 (Homo sapiens), Q01453 (parent)
chain: MLLLLLSIIVLHVAVLVLLFVSTIVSQWIVGNGHATDLWQNCSTSSSGNVHHCFSSSPNEWLQSVQATMILSIIFSILSLFLFFCQLFTLTKGGRFYITGIFQILAGLCVMSAAAIYTVRHPEWHLNSDYSYGFAYILAWVAFPLALLSGVIYVILRKRE
partner: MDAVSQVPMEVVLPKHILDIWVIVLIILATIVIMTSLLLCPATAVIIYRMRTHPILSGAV
B8: Emerin (Homo sapiens), P50402 (parent)
chain: B6 chain
partner: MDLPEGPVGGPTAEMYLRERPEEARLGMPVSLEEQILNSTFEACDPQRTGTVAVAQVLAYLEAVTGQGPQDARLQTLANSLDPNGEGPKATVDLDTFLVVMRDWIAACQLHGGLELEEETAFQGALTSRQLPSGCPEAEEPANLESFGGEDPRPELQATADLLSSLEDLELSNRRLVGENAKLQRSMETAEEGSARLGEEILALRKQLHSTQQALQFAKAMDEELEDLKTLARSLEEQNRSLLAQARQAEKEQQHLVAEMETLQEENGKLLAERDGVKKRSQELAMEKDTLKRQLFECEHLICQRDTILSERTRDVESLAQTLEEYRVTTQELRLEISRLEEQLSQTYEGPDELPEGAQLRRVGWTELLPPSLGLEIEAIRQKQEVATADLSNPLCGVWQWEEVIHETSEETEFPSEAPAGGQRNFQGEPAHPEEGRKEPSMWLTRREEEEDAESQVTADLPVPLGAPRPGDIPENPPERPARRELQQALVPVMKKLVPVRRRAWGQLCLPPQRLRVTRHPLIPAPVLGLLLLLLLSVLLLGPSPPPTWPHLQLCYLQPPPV

Variants of: B1
Conditions: with traf2_human TRAF2, Q12933

effect of a mutation on the interaction | Variant
with no effect | A5S

Variants of: B2
Conditions: with cr3l1_human CREB3L1, Q96BA8

effect of a mutation on the interaction | Variant
with no effect | G145E
with no effect | M514R
with no effect | P46S
with no effect | F192L
with no effect | R356H

Variants of: B3
Conditions: with AGTRAP

effect of a mutation on the interaction | Variant
with no effect | T154S
with no effect | P21S
with no effect | D150N
with no effect | R93W

Variants of: B4
Conditions: with PHC2, Q8IXK0-5

effect of a mutation on the interaction | Variant
with no effect | L107V

Variants of: B5
Conditions: with FSBP

effect of a mutation on the interaction | Variant
disrupting interaction strength | W94R

Variants of: B6
Conditions: with BEND7, Q8N7W2-2

effect of a mutation on the interaction | Variant
with no effect | P183H
with no effect | P183T
with no effect | S54F
with no effect | D72V

Variants of: B7
Conditions: with smim3_human SMIM3, Q9BZL3

effect of a mutation on the interaction | Variant
disrupting interaction strength | R157G

Variants of: B8
Conditions: with kash5_human KASH5, Q8N6L0

effect of a mutation on the interaction | Variant
with no effect | D72V
with no effect | S54F
with no effect | P183T
